“And” between values parts separate entries of the source, which are not always exact repeats. Identical values can stand only once. Like-named read-outs stand apart in the source and are kept apart here. * marks the point of attachment. monopropargyl‑cryptophane‑A = monopropargyl-cryptophane-A, coupled to the azido-peptide by Cu(I)-mediated coupling; 3‑azidopropionyl = [N-]=[N+]=NCCC(=O)*
What was measured:
[1] = concentration dependence of fluorescence intensity (aggregation); format: physicochemical; conditions: fluorescence intensity linear over 1-250 μM, standard buffer
Experimental: Solutions were at room temperature in standard buffer. The fluorescence intensity for each compound at a given wavelength and concentration was normalized to its value at the maximum biosensor concentration, in order to facilitate comparison and show linearity over a large concentration range.
Experiments were performed to identify the important contributions to the observed Trp fluorescence quenching. In the fully extended biosensor I (FIG. 1) cryptophane and Trp were separated by approximately 40 Å. Temperature dependence studies identified little contribution to Trp quenching from the cryptophane within the intact biosensor I. The observed decrease in Trp fluorescence at elevated temperatures (λem=358 nm, F/F0=0.3 at 353 K) was virtually identical to that seen with the Trp-containing hexapeptide 3, and was thus attributed to temperature-dependent solvent quenching by non-radiative decay processes. […] This was confirmed with I and II by comparing the concentration dependence of fluorescence intensity (λex=295 nm, λem=318 nm for cryptophane and λem=358 nm for Trp), after correcting for inner filter effects and dilution. Neither compound's fluorescence intensity deviated from linearity over the concentration range, 1-250 μM (FIG. 8). The absorption and fluorescence maxima were unchanged over this range.

[2] = system: Trp-containing hexapeptide LWRSRK 3; experiment: Stern-Volmer fluorescence quenching of hexapeptide 3 by cleaved biosensor II; format: binding; conditions: 3 at 16 μM, II 0-120 μM, 298 K, standard buffer; listed as II
Experimental: Solution of 3 was titrated with 3.18 mM II, to achieve concentrations of II between 0 and 120 μM. Steady-state fluorescence measurements found the ratio of initial fluorescence, F0, to observed fluorescence, F, at each quencher concentration. The linear fit gave an R^2 value of 0.88, which indicated a dominant static quenching mechanism. The slope of this line gave the association constant, KS=9000 M^−1, for the II-3 complex.
Having ruled out a prevalent role for intra- and intermolecular interactions within or between biosensors, we sought further to explain the decrease in Trp fluorescence upon enzymatic cleavage. […] To examine this quenching mechanism, the steady-state fluorescence intensity of the hexapeptide LWRSRK 3 was measured as a function of the cleaved sensor II (putative quencher) concentration in standard buffer. This Stern-Volmer experiment could only be performed within a limited range of II concentrations, due to limitations in the quantity of material and the contribution of this compound to total fluorescence. […] All fluorescence spectra were corrected to remove contributions from cryptophane. The resulting fluorescence maximum at 358 nm, which corresponded to Trp emission of I, decreased with successive additions of II. […]

[3] = biological target: T1, MMP-7 (Homo sapiens, UniProt P09237); conditions: reported previously at 303 K; cited from earlier work
T1 construct: BIOMOL International LP, MMP-7 (recombinant, catalytic domain); purchased BIOMOL International LP
T1 sequence (P09237 95-267): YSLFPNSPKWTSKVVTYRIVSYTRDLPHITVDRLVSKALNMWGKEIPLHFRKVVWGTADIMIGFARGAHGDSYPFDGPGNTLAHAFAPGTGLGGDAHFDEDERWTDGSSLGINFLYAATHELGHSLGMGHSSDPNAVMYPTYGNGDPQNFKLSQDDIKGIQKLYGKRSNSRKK

[4] = biological target: T1, MMP-7; experiment: MMP-7 enzymatic assay monitored by HPLC (UV-vis); format: biochemical
Experimental: (§1) At rt, an aliquot (2 μL) of active MMP-7 (0.454 μg/μL) was added into 0.998 mL of a freshly prepared solution of biosensor I at a known concentration in standard buffer. The extinction coefficient of I, ε=15,000 M^−1 cm^−1 at 280 nm in water, was determined from a solution containing the weighed sample. At approximately 3 min intervals, 70 μL aliquots were removed from the reaction mixture and immediately quenched with 30 μL of a 40 mM EDTA solution. Each aliquot was analyzed by HPLC with the gradient: time 0, A/B=75/25; 0-30 min, linear increase to A/B=45/55; 30-32 min, linear change to A/B=20/80; 32-42 min, A/B=20/80. The retention times for I and II were 15.6 min and 17.9 min, respectively. The enzyme activity was determined from the initial rate of increase in the concentration of cleaved sensor II, during the consumption of the first 10-15% of substrate I. The absorbance at 280 nm of the growing peak at 17.9 min was integrated and compared for each time point. Initial velocities were measured at substrate I concentrations of 6, 16, 28, 38, 48, 74 and 100 μM.
(§2) For the azidopeptide substrate 1, enzyme activity was determined similarly by HPLC with the gradient: time 0, A/B=90/10; 0-30 min, linear increase to A/B=60/40; 30-32 min, linear change to A/B=20/80; 32-42 min, A/B=20/80. Peak areas were monitored for the intact substrate 1 and cleaved hexapeptide product 3 at retention times of 17.0 and 10.3 min, respectively. Initial velocities were measured at substrate 1 concentrations of 6, 50, 100, and 870 μM.
The ability of MMP-7 to hydrolyze ^129Xe biosensor I was initially confirmed by HPLC analysis (FIG. 3a). A standard assay was performed by incubating a 1 mL reaction mixture of 32 nmol I and 42 pmol MMP-7 at 310 K. Reaction progress was monitored by analyzing aliquots of the reaction mixture at regular intervals. […] MALDI-TOF mass spectrometry identified these new peaks as the cleaved hexapeptide LWRSRK 3 and cryptophane-peptide product II, respectively. The peptide cleavage pattern agreed with previous assays using this substrate. […]

[5] = biological target: T1, MMP-7; experiment: fluorometric MMP-7 enzymatic assay (Trp fluorescence); format: biochemical
Experimental: Fluorescence spectra of I and II dissolved in standard buffer (λex=295 nm) were measured in small volume, 1-cm pathlength quartz cuvettes at 298 K using a Varian Cary Eclipse fluorescence spectrophotometer operated with the Cary Eclipse Bio software package (1 nm steps, 5 nm excitation and emission slits). Kinetics data were collected at 30 s intervals using the same software on samples with controlled temperature and stirring.
For the fluorometric enzymatic assay, an aliquot (2 μL) of active MMP-7 (0.454 μg/μL) was added into 0.998 mL solution of ^129Xe biosensor I with known concentration at 298 K. Fluorescence spectra were collected from 310-450 nm. All reported fluorescence data are uncorrected and are roughly 5 nm red-shifted from the values obtained when the instrumental correction feature is employed. Trp fluorescence at 400 nm was analyzed as a function of time, since there was little contribution at this wavelength from monopropargyl-cryptophane-A fluorescence. The enzyme activity was calculated from the initial rate of decrease in Trp emission at 400 nm, over the time interval that corresponded to the first 10-15% completion of the reaction. The kcat/KM value for biosensor I was calculated by non-linear regression of the activity data by varying the biosensor concentration from 6-100 μM; double-reciprocal 1/v versus 1/[S] Lineweaver-Burk plots^49 gave a similar kcat/KM value.
In enzyme kinetics studies, the fluorescence spectrum of I was taken at 30 s intervals after addition of MMP-7 (FIG. 7b). A continuous decrease of Trp emission was observed. The change in fluorescence intensity at 400 nm was used to calculate the initial velocity (v) of the enzyme reaction. The v values determined by HPLC and fluorometric methods were in excellent agreement (Table 1), which validated using the fluorometric assay to monitor this enzyme reaction. The Trp fluorescence assays were easier to run, allowed continuous monitoring of the reaction, provided greater sensitivity, and required less material than HPLC-based UV-vis absorbance measurements.

[6] = biological target: T1, MMP-7; experiment: MMP-7 enzyme kinetic parameters, Michaelis-Menten fit of initial velocities; format: biochemical
Experimental: as §1
(§3) The kcat/KM value for all peptide substrates was calculated based on the Michaelis-Menten equation (Equation 1) after fitting the activity data at varying substrate concentrations with a non-linear regression curve: […]
as §2
(§4) For the fluorometric enzymatic assay, an aliquot (2 μL) of active MMP-7 (0.454 μg/μL) was added into 0.998 mL solution of ^129Xe biosensor I with known concentration at 298 K. Fluorescence spectra were collected from 310-450 nm. […]

[7] = biological target: T2, hexapeptide LWRSRK; experiment: Stern-Volmer steady-state Trp fluorescence quenching; hexapeptide 3 (16 µM) titrated with II (0-120 µM), 298 K, standard buffer
T2 sequence (peptide): LWRSRK

[8] = substrate: CC(C)C[C@H](NC(=O)[C@H](C)NC(=O)[C@H](CC(C)C)NC(=O)[C@@H]1CCCN1C(=O)[C@H](CCCNC(=N)N)NC(=O)[C@H](CCCCN)NC(=O)[C@H](CCCNC(=N)N)NC(=O)CCN=[N+]=[N-])C(=O)N[C@@H](Cc1c[nH]c2ccccc12)C(=O)N[C@@H](CCCNC(=N)N)C(=O)N[C@@H](CO)C(=O)N[C@@H](CCCNC(=N)N)C(=O)N[C@@H](CCCCN)C(=O)O; experiment: MMP-7 enzyme kinetic parameters, Michaelis-Menten fit of initial velocities; format: biochemical; conditions: other: MMP-7 42 nM, 298 K, standard buffer
Experimental: as §1, §3, §2, §4

[9] = biological target: T3, MMP-7-responsive 129Xe biosensor I (monopropargyl-cryptophane-A coupled to azidopeptide RKRPLALWRSRK)
T3 chain: RKRPLALWRSRK

[10] = biological target: T4, azidopeptide N3-CH2CH2-CONH2-RKRPLALWRSRK
T4 chain: RKRPLALWRSRK

[11] = MMP-7 42 nM, 298 K, standard buffer

**Q.** What does the source list for “Biosensor II: monopropargyl-cryptophane-A 7 coupled to azidopeptide 2 (RKRPLA); MMP-7 cleaved product of I ({monopropargyl‑cryptophane‑A-3‑azidopropionyl (triazole link)}-RKRPLA-OH)”?
**A.** aggregation in solution [1]: unlikely to aggregate; association constant KS of the II-3 complex [2]: 9000 ± 1000 M⁻¹ and 9000 M⁻¹

**Q.** Which Km [3] does the source give for “dinitrophenyl-Arg-Pro-Leu-Ala-Leu-Trp-Arg-Ser” here?
**A.** Its Km is 26 µM.

**Q.** With “Biosensor I: monopropargyl-cryptophane-A 7 coupled by [3+2] cycloaddition to azidopeptide 1 (RKRPLALWRSRK); MMP-7-responsive 129Xe biosensor ({monopropargyl‑cryptophane‑A (triazole via Cu(I) (3+2) cycloaddition)-3‑azidopropionyl}-RKRPLALWRSRK-OH)” as the molecule, how does the aggregation in solution [1] read?
**A.** Its aggregation in solution is “unlikely to aggregate”.

**Q.** And the “Initial velocity, HPLC assay” value ([4]; Biosensor I 6 μM)?
**A.** The value was 1 pmol/s.

**Q.** And the “Initial velocity, HPLC assay” value ([4]; Biosensor I 50 μM)?
**A.** Its value is 10 pmol/s.

**Q.** And the “Initial velocity, HPLC assay” value ([4]; Biosensor I 100 μM)?
**A.** Its value is 7 pmol/s.

**Q.** And the “Initial velocity, fluorometric assay” value ([5]; Biosensor I 6 μM)?
**A.** The value was 0.9 pmol/s.

**Q.** What about the “Initial velocity, fluorometric assay” value ([5]; Biosensor I 50 μM) of the same molecule?
**A.** The value was 9 pmol/s.

**Q.** And the “Initial velocity, fluorometric assay” value ([5]; Biosensor I 100 μM)?
**A.** The value was 8 pmol/s.

**Q.** And the “fold lower Vmax relative to substrate 1” value [6]?
**A.** Its value is 3.6 fold.

**Q.** And the Km [6, 11]?
**A.** The Km was 43 µM.

**Q.** What about the Vmax [6, 11] of the same molecule?
**A.** The Vmax was 1.3e-08 M/s.

B1: cleaved biosensor II (monopropargyl-cryptophane-A coupled to azidopeptide RKRPLA) (peptide)
peptide: {monopropargyl‑cryptophane‑A (via triazole, CuAAC)-3‑azidopropionyl}-RKRPLA-OH
**Q.** With B1 as the molecule, how does the Ka [7] read?
**A.** Its Ka is 9000 M⁻¹.

B2: MMP-7 (Homo sapiens) (protein)
chain: T1 sequence (P09237 95-267)
notes: BIOMOL International LP, MMP-7 (recombinant, catalytic domain); purchased BIOMOL International LP
**Q.** Which results are given for B2?
**A.** Km [8]: 150 µM; Vmax [8]: 2.82 µM/min; kcat/Km [8]: 7300 M⁻¹ s⁻¹; KM [9]: 43 µM; Vmax [9]: 1.3e-08 M/s; initial velocity v of proteolysis of biosensor I by MMP-7 (42 nM), fluorometric assay, 298 K; shown without a printed number [9]: v rises with [Biosensor I] from about 1 nM s-1 at about 6 µM to about 8-9 nM s-1 at 74-100 µM; the Michaelis-Menten fit line is still rising at 100 µM, no upper plateau inside the range; kcat/KM [9]: 7200 M⁻¹ s⁻¹; KM [10]: 150 µM; Vmax [10]: 4.7e-08 M/s; kcat/KM [10]: 7300 M⁻¹ s⁻¹

Source: US8470587B2, “129Xe biosensors and their use” (The Trustees of the University of Pennsylvania, priority 2006, dated 2013)
